By stoichiometry N is commonly meant a count of units in the complex or per binding partner.

The source of these data is publication PMC6201868, “Significance of a histone-like protein with its native structure for the diagnosis of asymptomatic tuberculosis” (PLoS ONE, 2018).

For data set [1], the target named is rFull-MDP1 (full-length HIS-tagged recombinant mycobacterial DNA-binding protein 1) (M. tuberculosis) (UniProt P9WMK7). Briefly: cross-linking.
Data set [2] deals with the molecule itself. As to the kind of experiment: […], buffer pH 7.0 with 300 mM NaCl, […].

Consider “rFull-MDP1 (full-length HIS-tagged recombinant mycobacterial DNA-binding protein 1) (from UniProt P9WMK7 1-216) (natural protein)”, for which, in data set [1], the stoichiometry N turned out to be 2.

B1: rN-MDP1 (amino acids 1-100 of mycobacterial DNA-binding protein 1, histidine-tagged) (domain or fragment)
chain: MGMNKAELIDVLTQKLGSDRRQATAAVENVVDTIVRAVHKGDSVTITGFGVFEQRRRAARVARNPRTGETVKVKPTSVPAFRPGAQFKAVVSGAQRLPAE
notes: also called N-terminal half of MDP1
Take B1: the “stoichiometry N” value in data set [2] came out at 2.
